This passage reports IC50 and Maximum % inhibition results from US20220024981A1 (Novartis, published 2022).

Bridge positions count the residues as written; N and C are the ends. Square brackets hold non-standard residues; d marks the D form. Phe(3,4-Cl2) = N[C@@H](Cc1ccc(Cl)c(Cl)c1)C(=O)O; Bip = N[C@@H](Cc1ccc(-c2ccccc2)cc1)C(=O)O; NMeF = CN[C@@H](Cc1ccccc1)C(=O)O; NMeE = CN[C@@H](CCC(=O)O)C(=O)O; NMeA = CN[C@@H](C)C(=O)O

Sequences and labels used below:
B1: Ac*-F-V-S-T-T-B-(N-Me)A-B-(N-Me)A-E-S-P-C*-G-NH2 (peptide)
peptide: FVSTTXAXAESPCG
modifications: not fully specified; N-terminal acetyl (Ac*) joined by a sulfide bond to the side chain of Cys13 (cyclic); 6: L-Bip; 7: L-(N-Me)Ala; 8: L-Bip; 9: L-(N-Me)Ala; C-terminal amide (NH2)
notes: also called 1-25; Ex. No. 1-25
B2: Ac*-F-V-P-T-T-B-(N-Me)A-B-(N-Me)A-D-R-P-C*-G-NH2 (peptide)
peptide: {CH2CO}-FVPTT[Bip][NMeA][Bip][NMeA]DRPCG-NH2
modifications: thioether N-13
SMILES: CC(C)[C@@H]1NC(=O)[C@H](Cc2ccccc2)NC(=O)CSC[C@@H](C(=O)NCC(N)=O)NC(=O)[C@@H]2CCCN2C(=O)[C@H](CCCNC(=N)N)NC(=O)[C@H](CC(=O)O)NC(=O)[C@H](C)N(C)C(=O)[C@H](Cc2ccc(-c3ccccc3)cc2)NC(=O)[C@H](C)N(C)C(=O)[C@H](Cc2ccc(-c3ccccc3)cc2)NC(=O)[C@H]([C@@H](C)O)NC(=O)[C@H]([C@@H](C)O)NC(=O)[C@@H]2CCCN2C1=O
notes: also called 1-19; Ex. No. 1-19
B3: Ac*-F-V-D-T-T-B-(N-Me)A-(3,4-diCl)F-(N-Me)A-E-S-P-C*-G-NH2 (peptide)
peptide: {CH2CO}-FVDTT[Bip][NMeA][Phe(3,4-Cl2)][NMeA]ESPCG-NH2
modifications: thioether N-13
SMILES: CC(C)[C@@H]1NC(=O)[C@H](Cc2ccccc2)NC(=O)CSC[C@@H](C(=O)NCC(N)=O)NC(=O)[C@@H]2CCCN2C(=O)[C@H](CO)NC(=O)[C@H](CCC(=O)O)NC(=O)[C@H](C)N(C)C(=O)[C@H](Cc2ccc(Cl)c(Cl)c2)NC(=O)[C@H](C)N(C)C(=O)[C@H](Cc2ccc(-c3ccccc3)cc2)NC(=O)[C@H]([C@@H](C)O)NC(=O)[C@H]([C@@H](C)O)NC(=O)[C@H](CC(=O)O)NC1=O
notes: also called 1-26; Ex. No. 1-26
B4: Ac*-F-V-S-T-T-B-(N-Me)A-B-(N-Me)A-P-S-P-C*-G-NH2 (peptide)
peptide: FVSTTXAXAPSPCG
modifications: not fully specified; N-terminal acetyl (Ac*) joined by a sulfide bond to the side chain of Cys13 (cyclic); 6: L-Bip; 7: L-(N-Me)Ala; 8: L-Bip; 9: L-(N-Me)Ala; C-terminal amide (NH2)
notes: also called 1-20; Ex. No. 1-20
B5: Ac*-F-V-S-T-T-B-(N-Me)F-B-(N-Me)A-E-S-P-C*-G-NH2 (peptide)
peptide: FVSTTXFXAESPCG
modifications: not fully specified; N-terminal acetyl (Ac*) joined by a sulfide bond to the side chain of Cys13 (cyclic); 6: L-Bip; 7: L-(N-Me)Phe; 8: L-Bip; 9: L-(N-Me)Ala; C-terminal amide (NH2)
notes: also called 1-13; Ex. No. 1-13
B6: Ac*-F-V-D-T-T-B-(N-Me)A-B-(N-Me)A-E-S-P-C*-G-NH2 (peptide)
peptide: {CH2CO}-FVDTT[Bip][NMeA][Bip][NMeA]ESPCG-NH2
modifications: thioether N-13
SMILES: CC(C)[C@@H]1NC(=O)[C@H](Cc2ccccc2)NC(=O)CSC[C@@H](C(=O)NCC(N)=O)NC(=O)[C@@H]2CCCN2C(=O)[C@H](CO)NC(=O)[C@H](CCC(=O)O)NC(=O)[C@H](C)N(C)C(=O)[C@H](Cc2ccc(-c3ccccc3)cc2)NC(=O)[C@H](C)N(C)C(=O)[C@H](Cc2ccc(-c3ccccc3)cc2)NC(=O)[C@H]([C@@H](C)O)NC(=O)[C@H]([C@@H](C)O)NC(=O)[C@H](CC(=O)O)NC1=O
notes: also called 1-10; Ex. No. 1-10
B7: Ac*-F-V-D-T-T-S-(N-Me)F-B-(N-Me)A-E-S-P-C*-G-NH2 (peptide)
peptide: {CH2CO}-FVDTTS[NMeF][Bip][NMeA]ESPCG-NH2
modifications: thioether N-13
SMILES: CC(C)[C@@H]1NC(=O)[C@H](Cc2ccccc2)NC(=O)CSC[C@@H](C(=O)NCC(N)=O)NC(=O)[C@@H]2CCCN2C(=O)[C@H](CO)NC(=O)[C@H](CCC(=O)O)NC(=O)[C@H](C)N(C)C(=O)[C@H](Cc2ccc(-c3ccccc3)cc2)NC(=O)[C@H](Cc2ccccc2)N(C)C(=O)[C@H](CO)NC(=O)[C@H]([C@@H](C)O)NC(=O)[C@H]([C@@H](C)O)NC(=O)[C@H](CC(=O)O)NC1=O
notes: also called 1-5; Ex. No. 1-5
B8: Ac*-F-V-D-T-T-S-(N-Me)F-B-(N-Me)A-N-S-P-C*-G-NH2 (peptide)
peptide: {CH2CO}-FVDTTS[NMeF][Bip][NMeA]NSPCG-NH2
modifications: thioether N-13
SMILES: CC(C)[C@@H]1NC(=O)[C@H](Cc2ccccc2)NC(=O)CSC[C@@H](C(=O)NCC(N)=O)NC(=O)[C@@H]2CCCN2C(=O)[C@H](CO)NC(=O)[C@H](CC(N)=O)NC(=O)[C@H](C)N(C)C(=O)[C@H](Cc2ccc(-c3ccccc3)cc2)NC(=O)[C@H](Cc2ccccc2)N(C)C(=O)[C@H](CO)NC(=O)[C@H]([C@@H](C)O)NC(=O)[C@H]([C@@H](C)O)NC(=O)[C@H](CC(=O)O)NC1=O
notes: also called 1-3; Ex. No. 1-3
B9: Ac*-F-V-D-T-T-S-(N-Me)F-B-(N-Me)E-N-S-P-C*-G-NH2 (peptide)
peptide: {CH2CO}-FVDTTS[NMeF][Bip][NMeE]NSPCG-NH2
modifications: thioether N-13
SMILES: CC(C)[C@@H]1NC(=O)[C@H](Cc2ccccc2)NC(=O)CSC[C@@H](C(=O)NCC(N)=O)NC(=O)[C@@H]2CCCN2C(=O)[C@H](CO)NC(=O)[C@H](CC(N)=O)NC(=O)[C@H](CCC(=O)O)N(C)C(=O)[C@H](Cc2ccc(-c3ccccc3)cc2)NC(=O)[C@H](Cc2ccccc2)N(C)C(=O)[C@H](CO)NC(=O)[C@H]([C@@H](C)O)NC(=O)[C@H]([C@@H](C)O)NC(=O)[C@H](CC(=O)O)NC1=O
notes: also called 1-1; Ex. No. 1-1
B10: Ac*-F-V-S-T-T-S-(N-Me)F-B-(N-Me)A-E-S-P-C*-G-NH2 (peptide)
peptide: FVSTTSFXAESPCG
modifications: not fully specified; N-terminal acetyl (Ac*) joined by a sulfide bond to the side chain of Cys13 (cyclic); 7: L-(N-Me)Phe; 8: L-Bip; 9: L-(N-Me)Ala; C-terminal amide (NH2)
notes: also called 1-12; Ex. No. 1-12

The assay deals with T1, Human PCSK9 Alexa Fluor 647 (human, UniProt Q8NBP7 31-692, limits assumed, Alexa Fluor 647 label (site not stated)).
T1 construct: Labelled tracer of the TR-FRET assay, 16 nM stock; also called proprotein convertase subtilisin/kexin type 9
T1 sequence (Q8NBP7 31-692 limits assumed): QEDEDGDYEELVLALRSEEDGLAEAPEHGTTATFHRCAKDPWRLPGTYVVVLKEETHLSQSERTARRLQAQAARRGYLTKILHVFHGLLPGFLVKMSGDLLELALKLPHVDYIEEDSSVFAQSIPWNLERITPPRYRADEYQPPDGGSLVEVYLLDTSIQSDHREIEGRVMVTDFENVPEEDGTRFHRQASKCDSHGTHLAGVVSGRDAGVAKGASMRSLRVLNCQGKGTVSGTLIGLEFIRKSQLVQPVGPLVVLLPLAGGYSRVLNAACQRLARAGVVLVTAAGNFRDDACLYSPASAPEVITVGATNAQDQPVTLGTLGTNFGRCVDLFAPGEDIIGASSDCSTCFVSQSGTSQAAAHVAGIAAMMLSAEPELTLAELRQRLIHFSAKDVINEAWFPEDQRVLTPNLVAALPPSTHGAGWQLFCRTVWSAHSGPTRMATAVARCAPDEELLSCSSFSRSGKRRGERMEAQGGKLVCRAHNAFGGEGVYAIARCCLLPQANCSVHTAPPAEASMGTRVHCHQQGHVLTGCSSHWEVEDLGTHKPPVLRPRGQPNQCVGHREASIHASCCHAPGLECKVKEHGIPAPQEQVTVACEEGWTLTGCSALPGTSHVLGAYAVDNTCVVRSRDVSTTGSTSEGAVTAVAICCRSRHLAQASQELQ
Briefly: TR-FRET competition: PCSK9-Alexa Fluor 647 vs LDLR ECD-Eu kryptate. The protocol: A Proxi plate-low volume assay plate was used for the assay. […] Following a 30 minute incubation, 5 uL of 4 nM Human LDLR extracellular domain-Europium Kryptate was added and the mixture was incubated for an additional 2 hours.
The TR-FRET signal was measured on an EnVision or PheraStar instrument with a 60 μs delay, 330 nm excitation and 665 nm emission (FRET), and 330 nm excitation and 615 nm (Europium). The FRET ratio (FRET/Europium) was used for calculations.
For orientation: TR-FRET usually uses a lanthanide donor and a delayed reading to cut background.
As a reminder, the IC50 is the point on the concentration scale where inhibition reaches its midpoint. High values mean weaker potency, low ones greater potency. In turn, B1 displayed an IC50 of 2.5 nM and a Maximum % inhibition of 68%.

As to B2, the IC50 came to 2.7 nM and the Maximum % inhibition stood at 38%.

In the case of B3, the IC50 was determined as 2.4 nM and the Maximum % inhibition turned out to be 84%.

Molecule B4 had an IC50 of 8.1 nM and a Maximum % inhibition of 35%.

Take B5: the IC50 worked out at 7.8 nM and the Maximum % inhibition is 86%.

B6 returned an IC50 of 6 nM and a Maximum % inhibition of 90%.

In the case of B7, the IC50 was 35 nM and the Maximum % inhibition was determined as 95%.

In turn, B8 yielded an IC50 of 2.1 nM and a Maximum % inhibition of 55%.

B9 registered an IC50 of 2.6 nM and a Maximum % inhibition of 65%.

As for B10, the IC50 was 14 nM and the Maximum % inhibition is 87%.
